pIC50: −log10 of the molar value.
Biological target: 4-1BB (TNFRSF9) extracellular domain (Homo sapiens) (UniProt Q07011)
Assay: competition
Conditions: all dT replaced by TrpdU (5-(N-tryptaminocarboxyamide)-2'-deoxyuridine); all C 5-methyl-dC; inhibition of 4-1BB ligand capture by receptor on Protein A beads (co-IP); PBS/0.02% Tween-20, 37 C

CCTGCACCCAGTGTCCCNGANGGGGNNNNNNAGNNGNANNNNGNAANGGNGGANGNNGANGGAGAGGAGGANGG [1684-40]
pIC50: 9.09
